Results on five molecules are retold here after paper PMC10397247.

Where two headings read alike, the source gives them in different places.

The target in test [1] is T1, 4H850-bH.
T1 chain: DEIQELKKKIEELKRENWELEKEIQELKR
Put plainly: two-hybrid library CCNG1.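 Also: natural log of median RNA to DNA barcode read ratio; higher means stronger binding.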

The target of test [2] is T2, 4H906-bH.
T2 chain: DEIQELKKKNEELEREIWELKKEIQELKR
Put plainly: two-hybrid library CCNG1.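 Also: natural log of median RNA to DNA barcode read ratio; higher means stronger binding.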

In test [3] the target is T3, 4H432-AA.
T3 chain: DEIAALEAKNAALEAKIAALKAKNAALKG
Put plainly: two-hybrid library CCmax.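 Also: natural log of median RNA to DNA barcode read ratio; higher means stronger binding.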 To be noted: mean of both orientations.

Test [4] deals with T4, 4H63-AA.
T4 chain: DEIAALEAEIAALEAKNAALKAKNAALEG
The test is described as follows: two-hybrid library CCmax.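 Also: natural log of median RNA to DNA barcode read ratio; higher means stronger binding.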 To be noted: mean of both orientations.

Test [5] concerns the target T5, 4H3915-AA.
T5 chain: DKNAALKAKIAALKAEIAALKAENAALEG
Put plainly: two-hybrid library CCmax.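 Also: natural log of median RNA to DNA barcode read ratio; higher means stronger binding.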

Test [6] has as its target T6, 4H446-AA.
T6 chain: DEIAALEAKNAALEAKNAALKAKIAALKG
Put plainly: two-hybrid library CCmax.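 Also: natural log of median RNA to DNA barcode read ratio; higher means stronger binding.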

In test [7] the target is T7, 4H3974-AA.
T7 chain: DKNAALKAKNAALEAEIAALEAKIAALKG
The test is described as follows: two-hybrid library CCmax. The settings on record: mean of both orientations.

Test [8] addresses T8, 4H483-AA.
T8 chain: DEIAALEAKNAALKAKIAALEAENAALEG
Put plainly: two-hybrid library CCmax. To be noted: mean of both orientations.

In test [9] the target is T9, 4H464-AA.
T9 chain: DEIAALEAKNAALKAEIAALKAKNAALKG
Put plainly: two-hybrid library CCmax. To be noted: mean of both orientations.

The target of test [10] is T10, 4H675-AA.
T10 chain: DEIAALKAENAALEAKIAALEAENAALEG
The test is described as follows: two-hybrid library CCmax. To be noted: mean of both orientations.

Test [11] has as its target T11, 4H478-AA.
T11 chain: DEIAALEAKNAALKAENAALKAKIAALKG
Put plainly: two-hybrid library CCmax. The settings on record: mean of both orientations.

In test [12] the target is T12, 4H428-AA.
T12 chain: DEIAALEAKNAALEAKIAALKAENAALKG
The test is described as follows: two-hybrid library CCmax. To be noted: mean of both orientations.

Test [13] deals with T13, 4H3939-AA.
T13 chain: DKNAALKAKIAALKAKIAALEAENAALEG
The test is described as follows: two-hybrid library CCmax. The settings on record: mean of both orientations.

Test [14] concerns the target T14, 4H391-AA.
T14 chain: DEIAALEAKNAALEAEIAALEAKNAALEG
Put plainly: two-hybrid library CCmax.

The target of test [15] is T15, 4H971-AA.
T15 chain: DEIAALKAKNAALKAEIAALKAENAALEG
Put plainly: two-hybrid library CCmax. To be noted: mean of both orientations.

The target of test [16] is T16, 4H656-AA.
T16 chain: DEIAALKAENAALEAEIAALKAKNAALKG
The test is described as follows: two-hybrid library CCmax. The settings on record: mean of both orientations.

The target in test [17] is T17, 4H3920-AA.
T17 chain: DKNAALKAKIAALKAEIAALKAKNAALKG
The test is described as follows: two-hybrid library CCmax. The settings on record: mean of both orientations.

Test [18] deals with T18, 4H497-AA.
T18 chain: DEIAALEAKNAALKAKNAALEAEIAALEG
Put plainly: two-hybrid library CCmax. To be noted: mean of both orientations.

The target of test [19] is T19, APC9291-AA.
T19 chain: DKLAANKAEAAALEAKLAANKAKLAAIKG
Put plainly: two-hybrid library CCmax. The settings on record: mean of both orientations.

Test [20] has as its target T20, APC9806-AA.
T20 chain: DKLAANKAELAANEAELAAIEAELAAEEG
Put plainly: two-hybrid library CCmax. The settings on record: mean of both orientations.

For test [21], the target named is T21, APC9182-AA.
T21 chain: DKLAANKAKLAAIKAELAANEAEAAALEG
Put plainly: two-hybrid library CCmax.

Regarding DEIQELKKKIEELKRENWELEKEIQELKR [4H850-bH], the interaction score in test [1] was 0.554; in test [2], -0.227.
For DKNAALKAKIAALKAEIAALKAENAALEG [4H3915-AA], the interaction score was -1.16 in test [3]; 0.485 in test [4]; -0.838 in test [5]; -1.7 in test [6] (mean of both orientations); -0.146 in test [7].
Turning to DEIAALEAKNAALEAKNAALKAKIAALKG [4H446-AA], the interaction score in [4] is -1.67; in test [6], -1.68; in test [8] it was -2.13; in [9] it was -1.77.
Turning to DEIAALEAKNAALEAEIAALEAKNAALEG [4H391-AA], the interaction score in test [10] is -1.11; in test [11], -1.59; in [12], -0.212; in test [13], -1.7; in [14], -1.79; in [15], -1.02. In addition, the results for the interaction score in test [16], in test [17] and in test [18] were -0.583, -1.23 and -2, respectively.
For the molecule DKLAANKAKLAAIKAELAANEAEAAALEG [APC9182-AA], the interaction score in test [19] was -1.98; in test [20], -1.59; in test [21], -1.77.
